# US20210332123A1 (SUZHOU KANOVA BIOPHARMACEUTICAL, published 2021)
# Where a chain is given by its changes, count along the chain named.
# T1: human IL-25 (human, UniProt Q9H293 33-177)
# T1 sequence (looked up): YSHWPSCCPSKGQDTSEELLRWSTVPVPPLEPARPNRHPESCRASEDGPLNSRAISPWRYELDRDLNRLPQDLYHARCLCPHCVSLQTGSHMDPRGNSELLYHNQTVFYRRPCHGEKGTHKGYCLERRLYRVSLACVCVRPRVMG
# T2: cynomolgus IL-25 (cynomolgus, UniProt G7P9V9 33-176)
# T2 construct: In-house production
# T2 sequence: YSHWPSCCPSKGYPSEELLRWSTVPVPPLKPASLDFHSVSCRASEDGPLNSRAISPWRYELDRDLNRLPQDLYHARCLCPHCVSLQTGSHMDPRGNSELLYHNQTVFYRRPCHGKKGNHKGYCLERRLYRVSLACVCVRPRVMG
# T3: mouse IL-25 (mouse, UniProt Q8VHH8 17-169, limits assumed)
# T3 construct: In-house production
# T3 sequence (looked up): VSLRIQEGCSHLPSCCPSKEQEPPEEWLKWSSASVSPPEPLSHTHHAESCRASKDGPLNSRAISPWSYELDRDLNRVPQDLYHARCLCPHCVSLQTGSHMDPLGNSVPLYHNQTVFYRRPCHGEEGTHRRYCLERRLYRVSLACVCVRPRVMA
# T4: human IL-17F (human, UniProt Q96PD4 31-163)
# T4 sequence (looked up): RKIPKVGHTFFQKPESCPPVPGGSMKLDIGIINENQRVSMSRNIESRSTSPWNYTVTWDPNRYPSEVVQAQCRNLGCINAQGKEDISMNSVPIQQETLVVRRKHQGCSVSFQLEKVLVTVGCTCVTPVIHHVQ
# T5: human IL-17C (human, UniProt Q9P0M4 19-197)
# T5 sequence (looked up): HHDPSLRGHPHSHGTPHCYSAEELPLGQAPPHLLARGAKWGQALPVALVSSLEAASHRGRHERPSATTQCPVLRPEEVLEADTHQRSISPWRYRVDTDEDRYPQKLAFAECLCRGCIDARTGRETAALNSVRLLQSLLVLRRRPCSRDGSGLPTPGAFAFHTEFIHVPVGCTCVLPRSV
# T6: human IL-17D (human, UniProt Q8TAD2 18-202, limits assumed)
# T6 sequence (looked up): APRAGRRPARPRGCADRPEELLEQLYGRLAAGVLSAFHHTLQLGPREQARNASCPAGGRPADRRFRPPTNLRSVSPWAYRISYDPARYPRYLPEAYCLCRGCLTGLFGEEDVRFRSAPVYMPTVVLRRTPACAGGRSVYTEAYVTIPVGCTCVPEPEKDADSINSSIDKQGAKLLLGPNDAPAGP
# B1: VH1-1 + VL2-1 (humanized anti-IL-25 antibody formed by VH1-1 and VL2-1) (antibody, V domains shown)
# VH: QVTLKESGPTLVKPTQTLTLTCTFSGFSLSTSGMGLGWIRQPPGKALEWLAHIWWDDVKHYKPALKSRLTITKDTSKNQVVLTMTNVDPVDTATYYCARMGQLHYYGYDYAMDYWGQGTLVTVSS
# VL: DIQLTQSPSFLSASVGDRVTITCSASSSVSYMYWYQQKPGKAPKPLIYRTSNLASGVPSRFSGSGSGTEYTLTISSMQPEDFATYYCQLYHSYPPTWTFGQGTKLEIK
# B2: VH1-1 + VL1-2 (humanized anti-IL-25 antibody formed by VH1-1 and VL1-2) (antibody, V domains shown)
# VH: B1 VH
# VL: EIVLTQSPATLSASPGERVTISCSASSSVSYMYWYQQKPGQAPRPLIYRTSNLASGVPARFSGSGSGTDYTLTISSMEPEDFATYYCQLYHSYPPTWTFGQGTKLEIK
# notes: Captured by anti-human Fc gamma antibody in SPR
# B3: VH2-1 + VL1-2 (humanized anti-IL-25 antibody formed by VH2-1 and VL1-2) (antibody, V domains shown)
# VH: B1 VH with K5R, T10A, V12L, T72S, M84I
# VL: B2 VL
# B4: VH2-1 + VL2-1 (humanized anti-IL-25 antibody formed by VH2-1 and VL2-1) (antibody, V domains shown)
# VH: B1 VH with K5R, T10A, V12L, T72S, M84I
# VL: B1 VL
# B5: murine anti-IL-25 monoclonal antibody 18H3 (antibody, V domains shown)
# VH: QVTLKESGPGILQPSQTLSLTCSFSGFSLSTSGMGLGWIRQPSGKGLEWLAHIWWDDVKHYKPALKSRLTISKDISSSQVFLTIASVDTADTATYYCARMGQLHYYGYDYAMDYWGQGTSVTVSS
# VL: QIVLTQSPAIMSASPGEKVTISCSASSSVSYMYWYQQKPGSSPKPWIYRTSNLASGVPARFSGSGSGTSYSLTISSMEAEDAATYYCQLYHSYPPTWTFGGGTKLEIK
# notes: also called parental antibody; parental murine mAb
# Target: T1, human IL-25
# Test: cell-based or functional assay
row,"IC50, CXCL1/GROalpha production of HT-29 cells stimulated by human IL-25 [A] [nM]",Binder
1,7.23,B1
2,11.4,B2

# Target: T1, human IL-25
# Test: ELISA, plate coated with 2 µg/ml human IL-17E (IL-25)
# Method: (§1) MaxiSorp 96-well plates (NUNC #449824, www.thermofisher.com) were coated with 2 μg/ml human IL-17A (Cell Signaling #89285F, www.cellsignal.com), human IL-17F (Cell Signaling #8906LC, www.cellsignal.com), human IL-17B (Peprotech #200-28, www.peprotech.com), human IL-17C (R&D systems #1234-IL-025/CF, www.rndsystems.com), human IL-17D ((Peprotech #200-27, www.peprotech.com), human IL-17E (R&D systems #1258-IL-025/CF, www.rndsystems.com) in 1×PBS (50 μl/well) respectively. Plates were incubated at 4° C. overnight. Coating solution was removed and plates were washed once with 200 μl/well PBST (1×PBS with 0.05% tween-20). Then 200 μl/well blocking buffer (1×PBS with 0.05% tween-20, 3% BSA) was added and incubated at room temperature for 1 hour. Blocking buffer was removed and plates were washed three times with 200 μl/well PBST (1×PBS with 0.05% tween-20). The anti-IL-25 antibodies (produced in Example 2), were diluted to 10, 3.33, 1.11, 0.37, 0.123, 0.041, 0.0137, 0.0046, 0.0015, 0.00031, 0.000102, 0.000034 μg/ml by 1×PBS and added to the plates (50 μl/well). Plates were incubated at room temperature for 2 hours. Antibodies in the wells were removed and plates were washed three times with 200 μl/well PBST (1×PBS with 0.05% tween-20) each time. Goat anti-human IgG(H&L)-HRP secondary antibody (Jackson Immuno Research #109-035-088, www.jacksonimmuno.com) was diluted 1:5000 in 1×PBS and added to each well (50 μl/well). Plates were incubated at room temperature for 1 hour. Secondary antibody was removed and plates were washed seven times with 200 μl/well PBST (1×PBS with 0.05% tween-20) each time. 50 μl/well TMB (eBioscience #85-00-4201-56, www.ebioscience.com) was added and plates were incubated at room temperature for several minutes. Then 50 μl/well 2N H₂SO₄ was added to stop the reaction. Plates were read at 450 nm.
row,EC50 [nM],Binder
1,0.15,B1
2,0.196,B3
3,0.25,B2
4,0.187,B4

# Target: T2, cynomolgus IL-25
# Test: ELISA, plate coated with cynomolgus IL-25 (cynoIL25-his), OD450, Example 7 [panel cynoIL25-his]
row,EC50 [nM],Binder
1,1.51,B1
2,1.12,B3
3,2.35,B5

# Target: T3, mouse IL-25
# Test: ELISA, plate coated with mouse IL-25, OD450, Example 7; unit from the axis lg(nM) [panel Mouse IL-25]
row,EC50 [nM],Binder
1,0.153,B1
2,0.231,B3
3,0.242,B2
4,0.244,B4
5,0.329,B5

# Target: T1, human IL-25
# Test: SPR, Biacore T200; antibody captured by anti-human Fc, IL-25 as analyte
# Method: Anti-human Fc gamma specific antibody (Jackson Immuno Research, Lot no. 124448, Code. 109-008-098) was immobilized onto the Biacore T200 sensor chip using amine coupling method. Four antibodies secreted to the culture medium plus the parental antibody were injected and captured by anti-human Fc antibody via Fc (capture phase) individually. After equilibration, IL-25 was injected for 300 seconds (association phase) followed by the injection of running buffer for 1200 s (dissociation phase). Responses of reference flow cell (flow cell 1) were subtracted from those of humanized antibodies flow cells during each cycle. The surface was regenerated before the injection of another humanized antibody. The process was repeated until all antibodies are analyzed. The off-rates of humanized antibodies were obtained from fitting the experimental data locally to 1:1 interaction model using the Biacore T200 evaluation software. The antibodies were ranked by their dissociation rate constants (off-rates, Kd). The binders that interact with IL-25 with similar affinity to parental antibody were selected (Table 1).
Kd [nM],koff [s⁻¹],kon [M⁻¹ s⁻¹],Binder
0.271,0.000259,957000,B1
0.275,0.000327,1.19e+06,B3
0.267,0.000284,1.06e+06,B2
0.302,0.000353,1.17e+06,B4
0.34,0.000267,785000,B5

# Target: T4, human IL-17F
# Test: ELISA (FIG. 4)
# Method: as §1
row,binding result,Binder
1,no binding,B5

# Target: T5, human IL-17C
# Test: ELISA (FIG. 4)
# Method: as §1
row,binding result,Binder
1,no binding,B5

# Target: T6, human IL-17D
# Test: ELISA (FIG. 4)
# Method: as §1
row,binding result,Binder
1,no binding,B5
